Sequences and labels used below:
B1: TorAΔSP (TorA Δ2–39, lacking its entire Tat signal peptide) (domain or fragment, E. coli, UniProt P33225 40-848, looked up)
chain: AQAATDAVISKEGILTGSHWGAIRATVKDGRFVAAKPFELDKYPSKMIAGLPDHVHNAARIRYPMVRVDWLRKRHLSDTSQRGDNRFVRVSWDEALDMFYEELERVQKTHGPSALLTASGWQSTGMFHNASGMLAKAIALHGNSVGTGGDYSTGAAQVILPRVVGSMEVYEQQTSWPLVLQNSKTIVLWGSDLLKNQQANWWCPDHDVYEYYAQLKAKVAAGEIEVISIDPVVTSTHEYLGREHVKHIAVNPQTDVPLQLALAHTLYSENLYDKNFLANYCVGFEQFLPYLLGEKDGQPKDAAWAEKLTGIDAETIRGLARQMAANRTQIIAGWCVQRMQHGEQWAWMIVVLAAMLGQIGLPGGGFGFGWHYNGAGTPGRKGVILSGFSGSTSIPPVHDNSDYKGYSSTIPIARFIDAILEPGKVINWNGKSVKLPPLKMCIFAGTNPFHRHQQINRIIEGLRKLETVIAIDNQWTSTCRFADIVLPATTQFERNDLDQYGNHSNRGIIAMKQVVPPQFEARNDFDIFRELCRRFNREEAFTEGLDEMGWLKRIWQEGVQQGKGRGVHLPAFDDFWNNKEYVEFDHPQMFVRHQAFREDPDLEPLGTPSGLIEIYSKTIADMNYDDCQGHPMWFEKIERSHGGPGSQKYPLHLQSVHPDFRLHSQLCESETLRQQYTVAGKEPVFINPQDASARGIRNGDVVRVFNARGQVLAGAVVSDRYAPGVARIHEGAWYDPDKGGEPGALCKYGNPNVLTIDIGTSQLAQATSAHTTLVEIEKYNGTVEQVTAFNGPVEMVAQCEYVPASQVKS
B2: TorD^His (hexahistidine-tagged TorD) (natural protein, E. coli, UniProt P36662 1-199, looked up)
chain: MTTLTAQQIACVYAWLAQLFSRELDDEQLTQIASAQMAEWFSLLKSEPPLTAAVNELENRIATLTVRDDARLELAADFCGLFLMTDKQAALPYASAYKQDEQEIKRLLVEAGMETSGNFNEPADHLAIYLELLSHLHFSLGEGTVPARRIDSLRQKTLTALWQWLPEFVARCRQYDSFGFYAALSQLLLVLVECDHQNR
B3: TorAΔCT (TorA Δ676–848, lacking its entire C-terminal Domain IV) (domain or fragment, E. coli, UniProt P33225 1-675, looked up)
chain: MNNNDLFQASRRRFLAQLGGLTVAGMLGPSLLTPRRATAAQAATDAVISKEGILTGSHWGAIRATVKDGRFVAAKPFELDKYPSKMIAGLPDHVHNAARIRYPMVRVDWLRKRHLSDTSQRGDNRFVRVSWDEALDMFYEELERVQKTHGPSALLTASGWQSTGMFHNASGMLAKAIALHGNSVGTGGDYSTGAAQVILPRVVGSMEVYEQQTSWPLVLQNSKTIVLWGSDLLKNQQANWWCPDHDVYEYYAQLKAKVAAGEIEVISIDPVVTSTHEYLGREHVKHIAVNPQTDVPLQLALAHTLYSENLYDKNFLANYCVGFEQFLPYLLGEKDGQPKDAAWAEKLTGIDAETIRGLARQMAANRTQIIAGWCVQRMQHGEQWAWMIVVLAAMLGQIGLPGGGFGFGWHYNGAGTPGRKGVILSGFSGSTSIPPVHDNSDYKGYSSTIPIARFIDAILEPGKVINWNGKSVKLPPLKMCIFAGTNPFHRHQQINRIIEGLRKLETVIAIDNQWTSTCRFADIVLPATTQFERNDLDQYGNHSNRGIIAMKQVVPPQFEARNDFDIFRELCRRFNREEAFTEGLDEMGWLKRIWQEGVQQGKGRGVHLPAFDDFWNNKEYVEFDHPQMFVRHQAFREDPDLEPLGTPSGLIEIYSKTIADMNYDDCQGHPMWFEK

Test [1] deals with TorD^His (hexahistidine-tagged TorD) (E. coli) (UniProt P36662). The test is described as follows: SEC-MALS. (In gel filtration, larger molecules generally elute earlier.)
In test [2] the target is TorA signal peptide signal peptide (Escherichia coli) (UniProt P33225). Particulars: cited from earlier work.
Test [3] deals with B2. The experiment in a line: SEC-MALS.
Test [4] deals with B1. The experiment in a line: pull-down.

What is called stoichiometry N is a count of units in the complex or per binding partner. Take “TorA, full-length precursor (trimethylamine N-oxide reductase), cofactor-free (from UniProt P33225 40-848) (natural protein)”: in test [1], the stoichiometry N was 1. Usually Kd stands for the equilibrium constant for the complex coming apart. Turning to TorD (from UniProt P36662), in test [2], the Kd was 59 nM. For the molecule B1, in test [3], the “stoichiometry N” value is 1. For the molecule B2, in test [4], the binding result is on record as “binds”. For the molecule B3, the “stoichiometry N” value in test [3] was found to be 1.
